# Experiment: soluble on expression in E. coli; label from the status in PepcDB or PDB records
row,Sequence,soluble on expression in E. coli
1,MAHHHHHHMGKKAEFARSRFKEVRQKREERMQRSRTERDRRHGIDKLERKIGKVVVQRPLPNEAQQALLLAQFAQACRLVAPSTDMCILMRHYAKVAEAAEQKSKSTTMVTTSAPSAKSTTRKRKRDEAEEEEEEAPAAGATFLDTVADALLQTQNAPAVIEEAAASAKDGENALDDDDDDDDTVTVLQDILQDDNGRRVVATLLASLNAVHSSKCEAVAKAVLEQFEENEHLPQHHVACRVMSALAQFGSDPTRQGVLNLLRQRSTTIEGVERLLSDRHTAGTIEQLLKSYSRETAAWLCEALSLSTPVTSPSAAEAGGKKKKAAKQRDAAAEETASGERITTEKLMELVNGPVSGQVLLQLLHTDARRELLKRLPIVELLRSKRGTTFLTQLLMSTASVASSKGDEGREAEAVALFSDVLERLGNDLGEMAIDKRANFVVQALIQLLPAMGPQSAKQLERLERGLGGAAGISALVAHGNGVHVVLSLIDAALTLSSESAVEGLAEQLVTRQNVTDLLYHKHGSLVVRRLMPLISRKASKVGRLLQGMVEQDFSNLVYTEAGNLVVTAYLTALGKSGASLLAQKLAGGEELLSMCRSPYASHVVFTLFELVDPITHTLLCNALKAHVLPLSIHVNGRFIVEKMIAASRDVRESVSRQFLSLAQERGTQHVLCALLARMDARGKQACVEKTIMPNLTALATHQCGSIVLQKLMQAEPTVLSAVRQRLSANSLVRSDLAQNFFGKFVVQIAQQPEQEQPQ,soluble
2,TPYDPLTLWTTPDPPPNCSLIQELDAKLTLCLTKNGSIVNGIVSLVGVKGNLLNIQSTTTTVGVHLVFDEQGRLITSTPTALVPQASWGYRQGQSVSTNTVTNGLGFMPNVSAYPRPNASEAKSQMVSLTYLQGDTSKPITMKVAFNGITSLNGYSLTFMWSGLSNYINQPFSTPSCSFSYITQE,soluble
3,MLSVFPLAGMSLASLHYSTHRVDQTQVYMVAAPMADYRVVMTEPAASGQDTYLETTAAFARRTGAVAAMNTNFFRWLNAQSLRSFQDYQKWIMGESNPEGISYRALRQTCLSGRGTIPAGVAGAYIVNGRVVRPYEGGYSGIVNFPAQGGIEFYRGRLPEQPFNVVSGSQQLLDGGRKLPVDGSDRTSPKAILGRRGNEYVFVVSDGRGNGGSPGLSFLQLQDFLLQQGVTEATAMDGGESATLVVEGQVKNHPRDRYCELARWLPAPALTLINLEEEAQETAMAMGRSLRPVGANIGLVPRHRPPAFLSFAFWEFLQQRLLARLRAWRDAVLEHHHHHH,not soluble
4,MIDERDKIILEILEKDARTPFTEIAKKLGISETAVRKRVKALEEKGIIEGYTIKINPKKLGYSLVTITGVDTKPEKLFEVAEKLKEYDFVKELYLSSGDHMIMAVIWAKDGEDLAEIISNKIGKIEGVTKVCPAIILEKLK,soluble
5,MAHHHHHHHRSDASVIVVGAGPAGLMLAGELRLGGVDVMVLEQLPQRTGESRGLGFTARTMEVFDQRGILPAFGPVETSTQGHFGGRPVDFGVLEGAHYGVKAVPQSTTESVLEEWALGRGAELLRGHTVRALTDEGDHVVVEVEGPDGPRSLTTRYVVGCDGGRSTVRKAAGFDFPGTSASREMFLADIRGCEITPRPIGETVPLGMVMSAPLGDGVDRIIVCERGAPARRRTGPPPYQEVAAAWQRLTGQDISHGEPVWVSAFGDPARQVSAYRRGRVLLAGDSAHVHLPAGGQGMNVSVQDSVNLGWKLAAVVSGRAPAGLLDTYHEERHPVGRRLLMNTQAQGMLFLSGDEMQPLRDVLSELIRYDEVSRHLAGMVSGLDIRYEVDGGDHPLLGMRMPHQELVRAHGKTSTTELLHPARGVLLDIADDAEVREAATGWSDRVDIVTASLHDAPPQGPLSDARAVLVRPDGYVAWISPGSRAGLTEALDRWFGPAR,soluble
6,THPVEAAERNYERARAELNQANEDVARNQERQAKAVQVYNSRKSELDAANKTLADAIAEIKQFNRFAHDPMAGGHRMWQMAGLKAQRAQTDVNNKQAAFDAAAKEKSDADAALSAAQERRKQKENKEKDAKDKLD,soluble
7,MAATARRGWGAAAVAAGLRRRFCHKLKNPYTIKKQPLHQFVQRPLFPLPAAFYHPVRYMFIQTQDTPNPNSLKFIPGKPVLETRTMDFPTPAAAFRSPLARQLFRIEGVKSVFFGPDFITVTKENEELDWNLLKPDIYATIMDFFASGLPLVTEETPSGEAGSEEDDEVVAMIKELLDTRIRPTVQEDGGDVIYKGFEDGIVQLKLQGSCTSCPSSIITLKNGIQNMLQFYIPEVEGVEQVMDDESDEKEANSP,soluble
8,GSPGIPMVAAHAAHSQSSAEWIACLDKRPLERSSEDVDIIFTRLKGVKAFEKFHPNLLRQICLCGYYENLEKGITLFRQGDIGTNWYAVLAGSLDVKVSETSSHQDAVTICTLGIGTAFGESILDNTPRHATIVTRESSELLRIEQEDFKALWEKYRQYMAGLLAPPYGVMETGSNNDRIPDKENVPSEKILRAGKILRIAILSRAPHMIRDRKYHLKTYRQCCVGTELVDWMIQQTSCVHSRTQAVGMWQVLLEDGVLNHVDQERHFQDKYLFYRFLDDEREDAPLPTEEEKKECDEELQDTMLLLSQMGPDAHMRMILRKPPGQRTVDDLEIIYDELLHIKALSHLSTTVKRELAGVLIFESHAKGGTVLFNQGEEGTSWYIILKGSVNVVIYGKGVVCTLHEGDDFGKLALVNDAPRAASIVLREDNCHFLRVDKEDFNRILRDVEANTVRLKEHDQDVLVLEKVPAGNRAANQGNSQPQQKYTVMSGTPEKILEHFLETIRLEPSLNEATDSVLNDFVMMHCVFMPNTQLCPALVAHYHAQPSQGTEQERMDYALNNKRRVIRLVLQWAAMYGDLLQEDDVAMAFLEEFYVSVSDDARMMAAFKEQLPELEKIVKQISEDAKAPQKKHKVLLQQFNTGDERAQKRQPIRGSDEVLFKVYCIDHTYTTIRVPVAASVKEVISAVADKLGSGEGLIIVKMNSGGEKVVLKSNDVSVFTTLTINGRLFACPREQFDSLTPLPEQEGPTTGTVGTFELMSSKDLAYQMTTYDWELFNCVHELELIYHTFGRHNFKKTTANLDLFLRRFNEIQFWVVTEVCLCSQLSKRVQLLKKFIKIAAHCKEYKNLNSFFAIVMGLSNVAVSRLALTWEKLPSKFKKFYAEFESLMDPSRNHRAYRLTAAKLEPPLIPFMPLLIKDMTFTHEGNKTFIDNLVNFEKMRMIANTARTVRYYRSQPFNPDAAQANKNHQDVRSYVRQLNVIDNQRTLSQMSHRLEPRRP,soluble
9,MDVLVTAGGTSEPIDNVRSITNHSSGGLGKAIAESFLAAGHTVTYVTTKHALRPTQQLDLSIKEIETTVELATTLEQLFAEKQFDAIVHAMAVSDFTTETAQTEEQFIDSFAQQLSEQTLPKTKEALVTIVQNTLNQIADIPQTATKISSDTDRLLIFLKKNPKVIQMIRDKQPQTVLVGFKLLVNVSQEELVQVAQAALVKNRCDFVLANDLMNVHETEHKGLLINETGIVQEAYSKQGIGSMIVKNVEKKWREQQ,not soluble
10,MGSDKIHHHHHHMKITTVGLDIAKSVFHFVGVNKAGKLVKKKMIKRKDLLHFLAQIEPCLVVMEACGGANYWAREFEKVGHQVKLIAPQYVVPYRQGNKNDYNDALAIAEAAQRPNMRFVQPKPAEQQDIQMLHRMRERLSKQSTALVNQVRGMLAEYGIVITKGKASFRSKLPDILENADNELTAKGRSIFYQLYEEFNGIEERLKRCDNQVQQETKNNHVCQRLESVPGIGPVTATAFYAAVGEGKDFTNGRHFSAWCGLVPKQHSSGGKDNLLGISKRGNAYLRTLFIHGARAVLYHSDGKGDRFSRWAIALAERRGFNRACVAVANKLARIAWVIAAREDEYRMAV,not soluble
11,TNVISTLDLNLLTKGGGSWNVDGVNMKKSAVTTFDGKRVVKAVYDKNSGTSANPGVGGFSFSAVPDGLNKNAITFAWEVFYPKGFDFARGGKHGGTFIGHGAASGYQHSKTGASNRIMWQEKGGVIDYIYPPSDLKQKIPGLDPEGHGIGFFQDDFKNALKYDVWNRIEIGTKMNTFKNGIPQLDGESYVIVNGKKEVLKRINWSRSPDLLISRFDWNTFFGGPLPSPKNQVAYFTNFQMKKYELEHHHHHH,soluble
12,MGSDKIHHHHHHMNKKILIIDDNKMLGKLLAKKIQMTLDYEVDIAFGFAEAKELMNNDYFLAFVDLCLPDAPNGEVVDYVIEKKIPAIVLTASGDKATKEKFMDKDILDYIFKESETCIDEIISSIVKLNQYAKTKVIVAMSKLPERNEIKKILTQRQFNVLAAAHGEEAMSYLNDNNDVKLIIADVNMPVISGFELLTQVRERFSDDELGVILLGDHNDSFEANSFKNGVNEYLFKPLSKESFNCRLDRCLSYMDDKKFLSTYNVLDPVSGVKNYNALIDGIDDYFNEIATKDEEFAFAFLDIDNLQMINDEYGREVGDEVIKICANEIVNETKGRDLVGRYSAEKICILLKNISQERAIKIFSRIRVNIKKAGVLVNLDEVFFTASIGVVFGKSGDKIDSLADKASKILSQAKDNGKDRVEVCS,not soluble
13,MYNVVSFNNEGVEHMKPTSEKSKEIRKKYKAPGASDEQLANSIKVASEFEYKNSSTFGWGGVYMVDRFQSMITGRAITNNTQKLLDAQALEEEASKANLKQ,not soluble
14,AHHHHHHGSKDDIVESVETLVRKGMIEEAIKIVENLQENFDKVIALCKIAELTRDESFLEDAIYFLKKIKDHDNKAIGYGEVAKVYALLGYEEESLELFEEAVKLTKNLNPVDKAITLTILANRLALAGFVDLSLEMFQNAFAEIIELNIELTKKTDLIIQLAEILEASGDALDSENALKFYEMAQDIYKNLKLGQREGIIEKKIELTRTLMHTSYPDIRKLAYEGRFIQALHEIEKRFGGNNVIPLLELTAWAYKTNVFERLKLKEITMEKLSASKLSDEEKFKVVQLLLEIDDTLKAYEIAITLESQELREKALVLIGLKMIDEGEVRFVEEKIFPLLSDEKREEFINFLKNLPIA,soluble
15,MEILRRECGAVEENAYIVKLSSGIDFIIDPGFSSSEWVLENAKNPKAILITHGHYDHVWDGAQLSKLLKNTPIYAPKDDVFMLENDIFHLGMPVFSPNFSVPCNKGCTTLEIANTTIKYWHFPGHTPGCSIIEIEGVIFSGDFIFYRSIGRYDFPYSNEKDMKESLLRFQNLDFPKDIEIYPGHGDKTSFFAEREHSKIWVSRMALEHHHHHH,not soluble
16,MADDFAYLNARVRVRRGTLLKESFFQEALDLSFADFLRLLSETVYGGELAGQGLPDVDRAVLRTQAKLVGDLPRLVTGEAREAVRLLLLRNDLHNLQALLRAKATGRPFEEVLLLPGTLREEVWRQAYEAQDPAGMAQVLAVPGHPLARALRAVLRETQDLARVEALLAKRFFEDVAKAAKGLDQPALRDYLALEVDAENLRTAFKLQGSGLAPDAFFLKGGRFVDRVRFARLMEGDYAVLDELSGTPFSGLSGVRDLKALERGLRCVLLKEAKKGVQDPLGVGLVLAYVKEREWEAVRLRLLARRAYFGLPRAQVEEEVVCP,soluble
17,MKKYIITAFAFITLLTGSVTFTACEDIDDIKELNLDRLLSPTNLTARVRDKVNIELTWDEMDRAQSYVIEVFKEDPDFTGTAISTLESEKATYTVTGLEGETSYSIRVKSVAEGITDSKWVSATRSTDAEQILLEVAEEDLTASEVTLRWPAGQVATEIIITPNDVAAHRVTSDEIAAGAATIKNLKSETTYTATLKNGDKTRGTMVFTTLINLDGALPAYPGDNLATIIATAEANATIVLLPKDDNNSFIYTDESGTAKTLEIELTKDVTIKGLYAENRPTTNIKFVLSGCNNFKIENLNLTASDGGTIITVLDSKGGNITVTNCDVTGFGSLLVENDNTQTGTINTFTVDNCIFHDMASGKRFVDYQKKKSFIAEFTLKNSTFYNCCSGSDFIRFDRHSTKGNIINISNCTLYGIEATSKGLFYVRSNSVGNKDFTANITKCIFANMSNKVFFSQDTKTDNLTFNSNYYFEAPSLLSIPEGGAGKVVDATGVTLDPGFTDAANGNFKVSNQTIIDNEIGDPRWRK,soluble
